Source: article PMC2688778 (Structure (London, England : 1993), 2009)

Biological target: the molecule itself
Experiment: crystal structure

B1: RecE^606 (P658L) (residues 606-866 of E. coli RecE protein with the P658L mutation) (domain or fragment, UniProt P15032 606-866, looked up)
chain: ENYHAGPGISKSQLDDIADTPALYLWRKNAPVDTTKTKTLDLGTAFHCRVLELEEFSNRFIVAPEFNRRTNAGKEEEKAFLMECASTGKTVITAEEGRKIELMYQSVMALPLGQWLVESAGHAESSIYWEDPETGILCRCRPDKIIPEFHWIMDVKTTADIQRFKTAYYDYRYHVQDAFYSDGYEAQFGVQPTFVFLVASTTIECGRYPVEIFMMGEEAKLAGQQEYHRNLRTLSDCLNTDEWPAIKTLSLPRWAKEYAND
In the case of B1, the “stoichiometry N” value is reported as 4.
